{"source": "paper PMC4309608", "origin": "cited, not measured here", "key": {"Met (Homo sapiens)": {"target": "Met (Homo sapiens) (UniProt P08581)", "sequence (P08581 25-932)": "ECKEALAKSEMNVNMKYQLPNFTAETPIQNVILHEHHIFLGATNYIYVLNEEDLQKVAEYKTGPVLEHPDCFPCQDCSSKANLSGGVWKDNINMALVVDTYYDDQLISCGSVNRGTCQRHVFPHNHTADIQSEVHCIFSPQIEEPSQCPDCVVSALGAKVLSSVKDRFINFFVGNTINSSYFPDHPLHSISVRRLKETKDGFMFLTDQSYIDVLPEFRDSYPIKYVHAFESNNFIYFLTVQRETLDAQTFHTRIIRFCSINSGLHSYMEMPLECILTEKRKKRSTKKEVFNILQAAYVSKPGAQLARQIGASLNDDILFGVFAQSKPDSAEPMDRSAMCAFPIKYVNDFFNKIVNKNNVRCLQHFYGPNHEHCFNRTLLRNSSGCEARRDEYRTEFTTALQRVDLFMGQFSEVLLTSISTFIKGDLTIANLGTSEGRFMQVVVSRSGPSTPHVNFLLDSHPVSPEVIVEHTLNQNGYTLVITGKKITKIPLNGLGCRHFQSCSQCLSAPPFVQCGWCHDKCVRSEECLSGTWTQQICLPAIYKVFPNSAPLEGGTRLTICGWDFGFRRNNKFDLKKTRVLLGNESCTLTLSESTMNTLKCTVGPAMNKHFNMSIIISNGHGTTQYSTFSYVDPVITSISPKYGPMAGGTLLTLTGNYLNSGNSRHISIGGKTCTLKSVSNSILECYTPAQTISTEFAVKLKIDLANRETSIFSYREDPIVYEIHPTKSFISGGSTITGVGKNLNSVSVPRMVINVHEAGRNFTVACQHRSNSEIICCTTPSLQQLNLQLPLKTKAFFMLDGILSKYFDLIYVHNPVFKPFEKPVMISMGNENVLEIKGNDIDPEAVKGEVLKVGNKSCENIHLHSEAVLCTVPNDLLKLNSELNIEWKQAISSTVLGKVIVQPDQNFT"}, "[1]": {"target": "E-cadherin (Homo sapiens) (UniProt P12830)", "sequence (P12830 155-709)": "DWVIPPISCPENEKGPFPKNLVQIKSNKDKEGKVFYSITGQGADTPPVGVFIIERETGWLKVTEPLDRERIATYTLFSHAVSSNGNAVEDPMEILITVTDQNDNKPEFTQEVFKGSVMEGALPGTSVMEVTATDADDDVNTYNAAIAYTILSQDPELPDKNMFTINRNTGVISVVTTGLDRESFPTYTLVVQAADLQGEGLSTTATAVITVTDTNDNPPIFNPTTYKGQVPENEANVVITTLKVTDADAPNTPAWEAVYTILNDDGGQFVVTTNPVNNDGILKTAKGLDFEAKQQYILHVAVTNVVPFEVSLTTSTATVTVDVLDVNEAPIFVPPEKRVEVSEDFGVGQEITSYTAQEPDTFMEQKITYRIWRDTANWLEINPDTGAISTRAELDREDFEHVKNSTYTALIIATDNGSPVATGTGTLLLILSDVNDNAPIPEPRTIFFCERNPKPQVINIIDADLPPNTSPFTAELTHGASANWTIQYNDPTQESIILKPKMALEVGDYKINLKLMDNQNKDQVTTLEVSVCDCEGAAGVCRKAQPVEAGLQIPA"}, "[2]": {"target": "TgRON2 (Toxoplasma gondii) (UniProt B6KV60)", "sequence (B6KV60 25-1277)": "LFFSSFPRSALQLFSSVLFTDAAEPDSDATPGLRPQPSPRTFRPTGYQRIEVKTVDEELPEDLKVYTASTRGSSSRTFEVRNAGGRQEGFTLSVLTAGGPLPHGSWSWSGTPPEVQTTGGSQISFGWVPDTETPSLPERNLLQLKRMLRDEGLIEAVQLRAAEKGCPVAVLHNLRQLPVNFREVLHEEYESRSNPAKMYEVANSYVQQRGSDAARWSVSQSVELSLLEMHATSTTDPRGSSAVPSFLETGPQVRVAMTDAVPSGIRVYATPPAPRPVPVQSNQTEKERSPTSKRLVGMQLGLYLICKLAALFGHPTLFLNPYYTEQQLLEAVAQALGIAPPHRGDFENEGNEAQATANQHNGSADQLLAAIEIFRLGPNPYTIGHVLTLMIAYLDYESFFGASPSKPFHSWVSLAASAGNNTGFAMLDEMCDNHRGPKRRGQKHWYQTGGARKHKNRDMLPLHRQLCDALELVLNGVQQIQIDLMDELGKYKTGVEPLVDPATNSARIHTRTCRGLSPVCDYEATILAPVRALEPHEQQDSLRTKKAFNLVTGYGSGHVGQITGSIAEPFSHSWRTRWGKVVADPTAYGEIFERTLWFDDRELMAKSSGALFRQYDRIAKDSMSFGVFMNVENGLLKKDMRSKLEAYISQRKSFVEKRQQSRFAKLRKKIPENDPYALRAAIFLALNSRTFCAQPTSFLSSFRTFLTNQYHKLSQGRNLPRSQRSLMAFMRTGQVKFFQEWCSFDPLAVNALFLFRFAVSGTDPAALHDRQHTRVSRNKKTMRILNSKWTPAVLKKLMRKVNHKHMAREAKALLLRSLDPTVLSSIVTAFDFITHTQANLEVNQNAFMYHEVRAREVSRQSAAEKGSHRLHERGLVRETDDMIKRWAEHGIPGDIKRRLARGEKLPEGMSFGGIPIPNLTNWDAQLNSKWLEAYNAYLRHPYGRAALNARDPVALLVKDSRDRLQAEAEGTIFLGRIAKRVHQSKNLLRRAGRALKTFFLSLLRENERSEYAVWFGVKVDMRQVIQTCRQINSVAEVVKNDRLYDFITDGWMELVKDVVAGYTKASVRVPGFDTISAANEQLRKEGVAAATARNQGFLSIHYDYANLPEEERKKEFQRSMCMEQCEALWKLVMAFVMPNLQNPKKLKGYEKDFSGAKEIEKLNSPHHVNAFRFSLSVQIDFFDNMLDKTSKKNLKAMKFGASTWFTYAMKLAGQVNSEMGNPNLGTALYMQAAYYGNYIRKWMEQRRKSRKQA"}}, "data": [{"substance": "InlB (from UniProt P0DQD3)", "values": [{"measurement": "Kd", "setting": "Met (Homo sapiens)", "value": 0.025, "unit": "µM"}]}, {"substance": "InlA (from UniProt P0DJM0)", "values": [{"measurement": "Kd", "setting": "[1]", "value": 8, "unit": "µM"}]}, {"substance": "TgAMA1 (from UniProt B6KAM0)", "values": [{"measurement": "Kd", "setting": "[2]", "value": 0.015, "unit": "µM"}]}]}
